Data published in the nanobody polyreactivity screen of Harvey et al. (2022).

Assay: yeast display, Sf9 membrane polyspecificity reagent, FACS + sequencing; frameworks hold sequencing errors
Summary of the method: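 A nanobody's polyreactivity label depends on the gate it was sorted from. Yeast display cells were stained with 10% biotinylated, detergent-solubilized Sf9 membrane reagent for 1 hour at 4 °C, enriched on streptavidin microbeads and sorted by FACS. The low and high (top ~1%) gates were set on anti-HA fluorescence for expression and streptavidin fluorescence for reagent binding.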

Sequence	polyreactivity (PSR sort gate)
QVQLVESGGGLVQAGGSLRLSCAASGRILLTYAMGWYRQAPGKERELVAAISSDSRTYYADSVKGRFTISRDNAKNTVYLQMNSLKPEDTAVYYCVRRRYKYDYWGQGTQVTVSS	low polyreactivity
QVQLVESVGGLVQAGGSLRLSCAASGFIFGYNAMGWYRQAPGKERELVAAIDSGDSTYYADSVKGRFTISRDNAKNTVYLQMNSLKPEDTAVYFCATDVTFVYDFGYFQYDYWGQGTQVTVSS	low polyreactivity
QVQLVESGGGLVQAGGSLRLSSAASGSIFLYNAMGWYRQAPGKERELVAAISGSGGRTNYADSVKGRFTISRDHAKNTVYLQMNSLKPEVTAVYYCAAGYHVFRLGYARIPLYDYWGQGTQVTVSS	low polyreactivity
QVQLVESGGGLVQAGGSLRLSCAASGSTLGRYSMGWYRQAPGKERELVAAISWRGGSTYYADSVKGRFTISRDNAKNTVYLQMNSLKPEDTPVYYCAATYRFSEYYYWGQGTQVTVSS	high polyreactivity
QVQLVESGGGLVQAGGSLRLSCAASGSILQPNAMGWYRQAPGKERELVAAISWSGDNTYYADSVKGRFTISRDNAKNTVYLQMNSLKPEDTAVYYCATDADIYFQEYDYWGQGTQVTVSS	low polyreactivity
QVQLVESGGGLVQAGGSLRLSCAASGSTFKRYAMGWYRQAPGKERELVAAINRSGTSTYADSVKGRFTISRDNAKNTVYLQMNSLKPEDSAVYYCARYYAYLRVKYDYWGQGTQVTVSS	high polyreactivity
QDQLVESGGGLVQAGGSLRLSCAASGFTFTIYAMGGYRQAPGKEREFVAAISYTDGSTFYVDSVKGRFTISRDYAKNTVYLQMTSLKPEDTAVYYCAKDRPGWVHRRPTGGFDYWGQGTQVTVSS	low polyreactivity
QVQLVESRGGLVQAGGSLRLSCAASGSTFPGYAMGWYRQPPGKERELVAAINWRGASTYYADSVKGRFTMSRDNAKNTVYLQMNSLKPEDTAVYYCAGKYNHVTDEYEYWGQGTQVTVSS	high polyreactivity
QVQLVESGGGLVQAGGSLRLSCAASGRIFRYYAMGWYRQPPGKERELVAAISSSGGRTYYADSVKGRFTISRDNAKNTVYLQMNSLKPEDTAVYYCAADAPNFGLYRDKDYDYWGQGTQVTVSS	high polyreactivity
QVQLVESGGGLVQGGGSLRLSCAASGSIFSDYAMGWYRQAPGKEREFVAPITWSGTSTYYADSVKGRFTISRYNAKNTVYLQMNSLKPEDTAGDYSAADLLFWLGLVPGTIYDEFDYWGQGTQVTVAS	low polyreactivity
QVQLVESGGGLVQAGGSLRLSCAASGFTFAKNAMGWYRPAPGKERELVATISRSGGSTYYADSVKGRFTISRDNAKNTVYLQMNSLKPEDTAVYDCAADRSYGVLGNEGGYWGQGTQVTVSS	high polyreactivity
QVQLVDSGGGLVQAGGSLRLSCAASGSTFRYNVMGWYRQAPGKEREMVATISYSGGSTNYADSVKGRFTISRDNAKNTVYLPMNSLKPEDTAVYYCAARYLYPFYRYWWYDYWGQGTQVTVSS	high polyreactivity
QVQLVESGGGLVQAGGSLRLSCAASGLIFGGYAMGWYRQAPGKERELVATITSGGSTNYADSVKGRFTISRDNAKNTVYLQMNSLKPEDTAVYYCAAAERQGFPSVYPTYQWDYDYWGQGTQVTVSS	low polyreactivity
QVQLVESGGGLVQAGGSLRLSCASSGSTFYWNGMGWYRQAPGKERDLVADITWSGTSTNYADSVKGRFTISRDNAKNTVYLQMNSLKPEDTAVYYCAVSDFGLRDSLTIYDEYDYWGQGTQVTVSS	high polyreactivity
QVQLVESGGGLVQAGGSLRLSCAASGIIFTYYAMGWYRQAPGKERELVAAISYRGGSTYYADSVKGRFTISRDNAKNTVYLQMNSLKPEDTAVYYCNARYFRHYDYWGQGTQVTVSS	high polyreactivity
QVQLVESGGGLVQAGGSLRLSCAASGYIFVHYAMGWYRQEPGKERELVAAISKSGSSTYYADSVKGRFTISRDNAKNTVYLQMHSLKPEDTAVYYCAGVYPYVSGYTYGYWGQGTQVTVSS	low polyreactivity

Sequence	polyreactivity (PSR sort gate)
QVQLVESGGGLVQAGGRLRLSCAASGRIFVQYVMGWYRQAPGKERELVAAITGSDSTTYYADSVKGRFTISRDNAKNTVYLQMNSLKPEDTAVYYCNKDLWLQDDYWGQGTQVTVSS	low polyreactivity
QVQLVESGGGLVQAGGSLRLSCAASGFIFYYYAMGWYRQAPGKERELVAAISTSGGSTYYADSVKGRFTISRDNAKNTVYLQMNSLKPEDTAVYYCAAKIIGRPRTTDRYDYWGQGTQVTVSS	low polyreactivity
QVQLVESGGGLVQAGRSLRLSCSASGFSFSFYSMGWYRQAPGKERELVAAISQSGGSTYYADSVKGRFIISLDNAKHTVYLQKNSLKPEDTAVYYCNRGLRRHQSDDYWGQGTQVTVSS	high polyreactivity
QDHLVESGGGLVQAGGSLRLSCAASGSIFRRNAMGWYRQAPGKERELVAAIRYSGDRTYYADSVKGRFTISRDNAKNTVYLQMNSLKPEDTAVYYCAAKRSVSYYGYYYWGQGSQVTVSS	high polyreactivity
QVQLVESGGGLVQAGGSLRLSCAASGITFVKNAMGWYRQAPGKERELVARIRIGGSTSYADSVKGRFTISRDNAKNTVYLQRNSLKPEDNAVYYCARYAGRLSYRYEYWGQGTQVTVSS	high polyreactivity
QVQLVESGGGLVQAGGSLRLSCSASGRTFYEYAMGWYIQAPGKERELVAGITSGGSTNYADSVKGRFTISRDNAKNTVYLQMNSLKPEDTAVYYCAATYWGYEYDYWGQGTQVTVSS	low polyreactivity
QVQLVESGGGLVQAGGSLRLSCAASGSTFAANAMGWYRQAPGKERELVAAITSSGGSTYYADSVKGRFTISLDNEKNTVYLQMNSLKPEDTAVYYCNKDIERYVRIYDSWGQGTQVTVSS	low polyreactivity
QVQLVESGGGLVQAGGSLRLSCAASGRIIKPYAMGWYRQAPGKERELVAAISQSGGRTYYADSVKGRFTISRDNAKNTVYLQMNSLKPEDTAVYYCATRYVSSFGLHAQVWSYYYWGQGTQVTVSS	high polyreactivity
QVQLVESGGCLVQAGGSLRLSCAASGRTFVNNAMGWYRQAPGKYRELVAAITRSGGLTYSADSVKGRFTISRDHAKNTVYLQMTMLKPEYTAVYDCATAIVRLRHDDDWGQGTQVTVSS	high polyreactivity
QVQLVESGGGIVQAGGSLRLLCAASGRIFTGNVMGWYRQAPGKERVLVAAISYGGGSTNYADSVKGRFTISRDNAKNTVSLQMNSLIPEDTAVYYCAVLYGYRSSSRYGYDSWGQGSQVTVSS	high polyreactivity
QVQLVESGGGLVQAGGSLRLSCAASGSTFGWYTMGWYRQAPGKERELVAAISSGGRTYYADSVKGRFTISRDNEKNTVYLQMNILKPEDTAVYYCAAGIYSSRHSPYGYWGQGTQVTVSS	high polyreactivity
QVQLVESGGGLVQAGRSLRLSCAASGLTFKWYAMGWYRQAPGKERELVAAISRDGSTYYADSVKGRFTISRDNAKNTVYLQMNSLKPEDTAVYDCAADIWPSSLLADEYDYWGQGTQVTVSS	high polyreactivity
QVQLVESGGGLVQAGGSLRLSCAASGRIFRYYAMGWYRQAPGKERELVAAIRSDDSTNYADSVKGRFTISRDNAKNTVYLQMNSLKPEDTAVYYCAAVKAYYGGSRSYYYWGQGTQVTVSS	high polyreactivity
QVQLVESGGGLVQAGGSLRLTCAASGITLLYNAMGWYRQAPGKESELVAGITGRGGSTYYADSVKGRFTISRDNAKNTVYLQMNSLKPEDTAVYYCAATTDYRYVGRIVIRDEHWGQGTQVTVSS	low polyreactivity
QVQLVESGGGLVQAGGSLRLSCAASGSTFYRNAMGWYRQAPGKEREFVATINRGGSTYYADSVKGRFTISRDNAKNTVYLQMNSLKPEDTAVYYCNAKYKQRHGYSAVTSYATYDYWGQGTQVTVSS	high polyreactivity
